This series can be described thus: pH-moderated solubility (NaOH titration) of ALM-488 salts. The class given is physicochemical. The protocol:
A titration experiment was carried out using the ALM-488, HCl salt to determine if a nominal 40-50 mg/mL or higher solubility could be retained as pH is increased by gradual addition of NaOH. […] At solution pH values <4 the peptide remained in solution at concentrations >50 mg/mL. Above pH 4, the peptide precipitated. […] Dilution of the mixture due to base addition decreased the peptide concentration to ~47 mg/mL at pH values >7.
FIG. 8 is an overlay of the titration curves for ALM-488 hydrochloride and the ALM-488 acetate.

Molecules are shown by their SMILES.

On to `CC(C)[C@H](NC(=O)[C@H](Cc1ccc(O)cc1)NCCCCC(=O)[C@H](Cc1ccc(O)cc1)NC(=O)[C@@H]1CCCN1C(=O)[C@H](CCC(=O)O)NC(=O)[C@H](CCC(=O)O)NC(=O)[C@H](Cc1c[nH]c2ccccc12)NC(=O)[C@@H]1CCCN1C(=O)[C@@H](NC(=O)[C@H](CCC(N)=O)NC(=O)c1ccc2c(c1)C(=O)OC21c2ccc(O)cc2Oc2cc(O)ccc21)C(C)C)C(=O)N[C@H](C(=O)N[C@@H](CCCCN)C(=O)N[C@@H](CCCCN)C(=O)N[C@@H](CO)C(=O)N[C@@H](CO)C(=O)NCC(=O)NCC(N)=O)C(C)C` [ALM-488 acetate], for which the “initial pH of mixture” value (before NaOH, acetate mixture ~50 mg/mL) is listed as ~ 4. In addition, the “amount of NaOH required to adjust pH to ~7” value (compared with hydrochloride salt) is on record as “lower than that for the hydrochloride salt”. Besides, under “initial pH ~4, ~50 mg/mL”, the dissolution / appearance result was “did not completely dissolve and formed an opaque orange dispersion”. For the same molecule, where the note is “pH >7, NaOH added”, the appearance result is recorded as “clear solution”.

Values taken from US20260306676A1, “FLUORESCEIN-LABELED NERVE TARGETING PEPTIDE FORMULATIONS AND RELATED METHODS” (ALUME BIOSCIENCES, INC., priority 2023, published 2026).
